Source: US20160200799A1

Experiments:
Assay in all cases: cell-based or functional assay
[1] = target: Influenza virus A/Brisbane/59/2007 (H1N1) (Influenza A virus A/Brisbane/59/2007 (H1N1))
[2] = target: Influenza virus A/Panama/2007/1999 (H3N2) (Influenza A virus A/Panama/2007/1999 (H3N2))
[3] = target: Influenza virus A/Indonesia/5/2005/PR8-IBCDC-RG2 (H5N1) (Influenza A virus A/Indonesia/5/2005/PR8-IBCDC-RG2 (H5N1))
[4] = target: Influenza virus A/Okuda/1957 (H2N2) (Influenza A virus A/Okuda/1957 (H2N2))
[5] = target: Influenza virus A/Suita/1/2009pdm (H1N1 2009 pandemic) (Influenza A virus A/Suita/1/2009pdm (H1N1pdm))

In the case of “F045-092 completely humanized IgG antibody (control anti-HA antibody)”, the Infection inhibition rate (%) [1] is reported as 0%, the Infection inhibition rate (%) at 0.002 µg/mL [1] is reported as 0% and the Infection inhibition rate (%) at 0.006 µg/mL [1] is reported as 0%. It also gave an Infection inhibition rate (%) at 0.024 µg/mL [1] of 0%, an Infection inhibition rate (%) at 0.391 µg/mL [1] of 0% and an Infection inhibition rate (%) at 1.6 µg/mL [1] of 0%. It also gave an Infection inhibition rate (%) at 6.3 µg/mL [1] of 5.3%, an Infection inhibition rate (%) at 25.0 µg/mL [1] of 24.4% and an Infection inhibition rate (%) at 100.0 µg/mL [1] of 30.2%. The Infection inhibition rate (%) at 200.0 µg/mL [1] was 58.4%, the Infection inhibition rate (%) [2] was 0% and the Infection inhibition rate (%) at 0.391 µg/mL [2] was 1.9%. It also gave an Infection inhibition rate (%) at 1.6 µg/mL [2] of 31.4%, an Infection inhibition rate (%) at 6.3 µg/mL [2] of 42.9% and an Infection inhibition rate (%) at 25.0 µg/mL [2] of 96.7%. For the same substance, the Infection inhibition rate (%) at 100.0 µg/mL [2] was 99%, the Infection inhibition rate (%) at 200.0 µg/mL [2] was 99.5% and the Infection inhibition rate (%) at 0.024 µg/mL [3] was 0%. For the same substance, the Infection inhibition rate (%) at 0.391 µg/mL [3] was 0%, the Infection inhibition rate (%) at 0.98 µg/mL [3] was 0% and the Infection inhibition rate (%) at 1.6 µg/mL [3] was 0%. The Infection inhibition rate (%) at 6.3 µg/mL [3] was 0%, the Infection inhibition rate (%) at 25.0 µg/mL [3] was 14.3% and the Infection inhibition rate (%) at 100.0 µg/mL [3] was 28.2%. The Infection inhibition rate (%) at 200.0 µg/mL [3] was 38.6%, the Infection inhibition rate (%) [4] was 0% and the Infection inhibition rate (%) at 0.024 µg/mL [4] was 0%. It also gave an Infection inhibition rate (%) at 0.391 µg/mL [4] of 0%, an Infection inhibition rate (%) at 1.6 µg/mL [4] of 0% and an Infection inhibition rate (%) at 6.3 µg/mL [4] of 0%. The Infection inhibition rate (%) at 25.0 µg/mL [4] was 0%, the Infection inhibition rate (%) at 100.0 µg/mL [4] was 15.8% and the Infection inhibition rate (%) at 200.0 µg/mL [4] was 39.4%. For the same substance, the Infection inhibition rate (%) [5] was 0%, the Infection inhibition rate (%) at 0.002 µg/mL [5] was 0% and the Infection inhibition rate (%) at 0.006 µg/mL [5] was 0%. For the same substance, the Infection inhibition rate (%) at 0.024 µg/mL [5] was 4.2%, the Infection inhibition rate (%) at 0.391 µg/mL [5] was 4.2% and the Infection inhibition rate (%) at 1.6 µg/mL [5] was 0%. The Infection inhibition rate (%) at 6.3 µg/mL [5] was 6%, the Infection inhibition rate (%) at 25.0 µg/mL [5] was 0% and the Infection inhibition rate (%) at 100.0 µg/mL [5] was 16.1%. The Infection inhibition rate (%) at 200.0 µg/mL [5] was 15.1%.
